Data on 7 molecules can be found in patent US20170096479A1 (published 2017).

The target of assay [1] is T1, human VEGF (hVEGF) (human, UniProt P15692 181-395).
T1 sequence: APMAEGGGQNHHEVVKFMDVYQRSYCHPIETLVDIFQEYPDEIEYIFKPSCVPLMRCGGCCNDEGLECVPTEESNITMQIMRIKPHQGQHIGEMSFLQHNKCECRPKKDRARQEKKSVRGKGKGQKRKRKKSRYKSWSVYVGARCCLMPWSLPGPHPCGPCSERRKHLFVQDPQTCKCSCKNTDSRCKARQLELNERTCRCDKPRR
The assay is described as follows: cell-based or functional assay.

In assay [2] the target is T1, human VEGF (hVEGF). The assay is described as follows: SPR BIACORE kinetics. In general terms: SPR reads the build-up and loss of mass on a sensor chip optically.
Another assay has as its target human VEGF165 (human, UniProt P15692-4 27-191). The assay can be described thus: cell-based or functional assay.
Assay [3] deals with T1, human VEGF (hVEGF). The assay is described as follows: SPR BIACORE T200, single cycle.
Protocol: To confirm the results obtained from the deep mutagenesis scanning, selected mutations were expressed and purified, and their affinity towards VEGF was measured using BIACORE® surface plasmon resonance (SPR) and their thermostability (as assessed by melting temperature, Tₘ) was measured using differential scanning fluorimetry (DSF).
To determine the binding affinity of selected Fab variants, SPR measurement with a BIACORE® T200 instrument was used. Briefly, series S sensor chip CM5 was activated with 1-ethyl-3-(3-dimethylaminopropyl) carbodiimide (EDC) and N-hydroxysuccinimide (NHS) reagents according to the supplier's instructions, and human VEGF (hVEGF) was coupled to achieve 50-80 response units (RU), then following by blocking un-reacted groups with 1 M ethanolamine.
Three-fold serial dilutions of Fab in HBS-P buffer (0.01 M HEPES pH 7.4, 0.15 M NaCl, 0.005% surfactant P20) from low (0.02 nM) to high (50 nM) were injected (flow rate: 30 μl/min). The binding responses on hVEGF were corrected by subtracting of RU from a blank flow cell. The sensorgram was recorded and subject to reference and buffer subtraction before evaluating by BIACORE® T200 Evaluation Software (version 2.0). Association rates (kₒₙ) and dissociation rates (koff) were calculated using a simple one-to-one Langmuir binding model. The equilibrium dissociation constant (Kd) was calculated as the ratio koff/kₒₙ.

For orientation: Kd means the concentration at which binding is half-saturated. As a reminder, the kon is the rate constant with which the complex forms. Read a high kon as fast association.

B1: G6.31 AAEE (LC-N94A.LC-F83A.HC-A40E.HC-T57E) (Fab, V domains shown)
VH: EVQLVESGGGLVQPGGSLRLSCAASGFTISDYWIHWVRQEPGKGLEWVAGITPAGGYEYYADSVKGRFTISADTSKNTAYLQMNSLRAEDTAVYYCARFVFFLPYAMDYWGQGTLVTVSS
VL: DIQMTQSPSSLSASVGDRVTITCRASQDVSTAVAWYQQKPGKAPKLLIYSASFLYSGVPSRFSGSGSGTDFTLTISSLQPEDAATYYCQQGYGAPFTFGQGTKVEIK
For B1, the “IC50 relative to G6.31, VEGF-induced HUVEC migration assay” value with human VEGF (hVEGF) [1] was 0.9 relative to G6.31.

B2: R19HCLC2 (Fab, V domains shown)
VH: EEQLVEEGGGLVQPGESLRLSCAASGFEISDYWIHWVRQEPGEGLEWVAGITPAGGYEYYADSVEGRFTISADTSENTAYLQMNELRAEDTAVYYCARFVFFLPYAMDYWGQGELVTVSS
VL: DIQMTQSPSSLSASVGDEVTITCRASQDVSTAVAWYQQKPGEAPKLLIYSASFLYSGVPSRFSGSGSGTDFTLTIESLQPEDAATYYCQQGYGAPFTFGQGTKVEIK
notes: Fab
The molecule B2 showed a Kd with human VEGF (hVEGF) [2] of 0.0949 nM.

B3: HA100K-G6.31 AARR (Fab, V domains shown)
VH: EVQLVESGGGLVQPGGSLRLSCAASGFTISDYWIHWVRQAPGKGLEWVAGITPAGGYTRYADSVKGRFTISADTSKNTAYLQMRSLRAEDTAVYYCARFVFFLPYAMDYWGQGTLVTVSS
VL: DIQMTQSPSSLSASVGDRVTITCRASQDVSTAVAWYQQKPGKAPKLLIYSASFLYSGVPSRFSGSGSGTDFTLTISSLQPEDAATYYCQQGYGAPFTFGQGTKVEIK
modifications: free hinge cysteine of the Fab-C heavy chain conjugated to maleimide-functionalized linear hyaluronic acid (Mw 100 kDa)
For B3, in the assay with human VEGF165, the “qAC50 (equivalent to IC50), pKDR receptor activation assay on KDR-CHO cells” value was 0.135 nM.

B4: G6.31 HC-T57E (Fab, name in Kabat numbering, V domains shown)
VH: EVQLVESGGGLVQPGGSLRLSCAASGFTISDYWIHWVRQAPGKGLEWVAGITPAGGYEYYADSVKGRFTISADTSKNTAYLQMNSLRAEDTAVYYCARFVFFLPYAMDYWGQGTLVTVSS
VL: DIQMTQSPSSLSASVGDRVTITCRASQDVSTAVAWYQQKPGKAPKLLIYSASFLYSGVPSRFSGSGSGTDFTLTISSLQPEDFATYYCQQGYGNPFTFGQGTKVEIK
notes: Fab
Turning to B4, in the assay with human VEGF (hVEGF) [3], the kon turned out to be 1.93e+08 M⁻¹ s⁻¹.

B5: G6.31 LC-N94A (Fab, V domains shown)
VH: EVQLVESGGGLVQPGGSLRLSCAASGFTISDYWIHWVRQAPGKGLEWVAGITPAGGYTYYADSVKGRFTISADTSKNTAYLQMNSLRAEDTAVYYCARFVFFLPYAMDYWGQGTLVTVSS
VL: DIQMTQSPSSLSASVGDRVTITCRASQDVSTAVAWYQQKPGKAPKLLIYSASFLYSGVPSRFSGSGSGTDFTLTISSLQPEDFATYYCQQGYGAPFTFGQGTKVEIK
As for B5, the “IC50 relative to G6.31, VEGF-induced HUVEC migration assay” value in the assay with human VEGF (hVEGF) [1] is 5.2 relative to G6.31.

B6: G6.31 LC-Q89T (Fab, V domains shown)
VH: EVQLVESGGGLVQPGGSLRLSCAASGFTISDYWIHWVRQAPGKGLEWVAGITPAGGYTYYADSVKGRFTISADTSKNTAYLQMNSLRAEDTAVYYCARFVFFLPYAMDYWGQGTLVTVSS
VL: DIQMTQSPSSLSASVGDRVTITCRASQDVSTAVAWYQQKPGKAPKLLIYSASFLYSGVPSRFSGSGSGTDFTLTISSLQPEDFATYYCTQGYGNPFTFGQGTKVEIK
notes: Fab
With B6, in the assay with human VEGF (hVEGF) [3], the kon came to 1.17e+08 M⁻¹ s⁻¹.

B7: G6.31 LC-N94A.LC-F83A (Fab, V domains shown)
VH: EVQLVESGGGLVQPGGSLRLSCAASGFTISDYWIHWVRQAPGKGLEWVAGITPAGGYTYYADSVKGRFTISADTSKNTAYLQMNSLRAEDTAVYYCARFVFFLPYAMDYWGQGTLVTVSS
VL: DIQMTQSPSSLSASVGDRVTITCRASQDVSTAVAWYQQKPGKAPKLLIYSASFLYSGVPSRFSGSGSGTDFTLTISSLQPEDAATYYCQQGYGAPFTFGQGTKVEIK
In the case of B7, in the assay with human VEGF (hVEGF) [1], the “IC50 relative to G6.31, VEGF-induced HUVEC migration assay” value is 5.1 relative to G6.31.
